Consider 28 molecules from patent US20150344570A1 (published 2015).

T1: FcγRIIa R (human, UniProt P12318 34-217)
T1 construct: extracellular domain; also called FcgRIIa R type; 2aR
T1 sequence (looked up): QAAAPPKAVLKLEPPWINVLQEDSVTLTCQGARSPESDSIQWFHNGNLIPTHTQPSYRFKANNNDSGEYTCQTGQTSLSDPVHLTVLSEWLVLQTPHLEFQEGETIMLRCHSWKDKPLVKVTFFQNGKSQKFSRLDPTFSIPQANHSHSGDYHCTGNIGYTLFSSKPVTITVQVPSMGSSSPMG

B1: GpH7-B3 variant N325_20W/GpL16-k0 (antibody, human IgG1, kappa)
heavy: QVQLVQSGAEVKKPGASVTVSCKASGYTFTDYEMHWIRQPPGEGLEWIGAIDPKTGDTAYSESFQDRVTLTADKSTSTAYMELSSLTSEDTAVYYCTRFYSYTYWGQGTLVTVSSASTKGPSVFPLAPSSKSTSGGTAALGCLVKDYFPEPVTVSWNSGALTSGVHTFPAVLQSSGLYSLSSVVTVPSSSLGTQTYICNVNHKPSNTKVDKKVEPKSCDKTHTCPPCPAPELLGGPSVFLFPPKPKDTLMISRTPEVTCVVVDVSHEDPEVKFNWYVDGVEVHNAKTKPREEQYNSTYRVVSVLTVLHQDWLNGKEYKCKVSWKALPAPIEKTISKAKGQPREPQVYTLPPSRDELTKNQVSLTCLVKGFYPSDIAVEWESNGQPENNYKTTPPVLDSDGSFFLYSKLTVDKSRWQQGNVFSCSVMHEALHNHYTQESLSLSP
light: DIVMTQSPLSLPVTPGEPASISCQASESLVHSNRNTYLHWYLQKPGQSPQLLIYKVSNRFSGVPDRFSGSGSGTDFTLKISRVEAEDVGVYYCSQNTHVPPTFGQGTKVEIERTVAAPSVFIFPPSDEQLKSGTASVVCLLNNFYPREAKVQWKVDNALQSGNSQESVTEQDSKDSTYSLSSTLTLSKADYEKHKVYACEVTHQGLSSPVTKSFNRGEC
notes: also called Ho Ab N325_20W
B2: GpH7-B3 variant N325_13S/GpL16-k0 (antibody, human IgG1, kappa)
heavy: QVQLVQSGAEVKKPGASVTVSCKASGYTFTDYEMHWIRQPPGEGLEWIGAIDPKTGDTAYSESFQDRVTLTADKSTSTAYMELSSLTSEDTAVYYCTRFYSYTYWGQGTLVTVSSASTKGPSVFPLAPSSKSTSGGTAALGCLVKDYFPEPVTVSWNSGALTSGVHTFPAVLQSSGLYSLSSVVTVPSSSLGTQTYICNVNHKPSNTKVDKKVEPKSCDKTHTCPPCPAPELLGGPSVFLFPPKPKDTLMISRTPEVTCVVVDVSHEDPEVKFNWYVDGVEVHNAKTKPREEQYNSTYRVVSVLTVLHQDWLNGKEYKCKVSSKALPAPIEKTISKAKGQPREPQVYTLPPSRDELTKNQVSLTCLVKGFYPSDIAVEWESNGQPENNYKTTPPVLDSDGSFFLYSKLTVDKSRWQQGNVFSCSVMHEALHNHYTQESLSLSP
light: B1 light
notes: also called Ho Ab N325_13S
B3: GpH7-B3 variant P238_04F/GpL16-k0 (antibody, human IgG1, kappa)
heavy: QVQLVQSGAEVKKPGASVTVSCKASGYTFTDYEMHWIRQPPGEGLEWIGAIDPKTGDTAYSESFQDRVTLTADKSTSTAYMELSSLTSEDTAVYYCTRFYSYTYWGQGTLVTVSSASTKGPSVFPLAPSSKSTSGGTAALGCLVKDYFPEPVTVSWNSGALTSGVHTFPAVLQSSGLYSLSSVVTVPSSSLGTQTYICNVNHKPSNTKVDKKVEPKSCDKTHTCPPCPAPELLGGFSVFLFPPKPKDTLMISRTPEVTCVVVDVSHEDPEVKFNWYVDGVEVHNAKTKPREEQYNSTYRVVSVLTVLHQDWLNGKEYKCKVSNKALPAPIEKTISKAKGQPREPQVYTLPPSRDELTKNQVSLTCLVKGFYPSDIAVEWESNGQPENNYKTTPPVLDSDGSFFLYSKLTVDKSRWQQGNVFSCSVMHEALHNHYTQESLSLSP
light: B1 light
notes: also called Ho Ab P238_04F
B4: GpH7-B3 variant P331_03V/GpL16-k0 (antibody, human IgG1, kappa)
heavy: not shown
light: B1 light
notes: also called Ho Ab P331_03V
B5: GpH7-B3 variant P238_06M/GpL16-k0 (antibody, human IgG1, kappa)
heavy: not shown
light: B1 light
notes: also called Ho Ab P238_06M
B6: GpH7-A5/GpH7-B3 variant A330_11K/GpL16-k0 (antibody, human IgG1, kappa)
heavy 1: not shown
heavy 2: not shown
light: B1 light
notes: also called He Ab A330_11K
B7: GpH7-B3 variant L328_02A/GpL16-k0 (antibody, human IgG1, kappa)
heavy: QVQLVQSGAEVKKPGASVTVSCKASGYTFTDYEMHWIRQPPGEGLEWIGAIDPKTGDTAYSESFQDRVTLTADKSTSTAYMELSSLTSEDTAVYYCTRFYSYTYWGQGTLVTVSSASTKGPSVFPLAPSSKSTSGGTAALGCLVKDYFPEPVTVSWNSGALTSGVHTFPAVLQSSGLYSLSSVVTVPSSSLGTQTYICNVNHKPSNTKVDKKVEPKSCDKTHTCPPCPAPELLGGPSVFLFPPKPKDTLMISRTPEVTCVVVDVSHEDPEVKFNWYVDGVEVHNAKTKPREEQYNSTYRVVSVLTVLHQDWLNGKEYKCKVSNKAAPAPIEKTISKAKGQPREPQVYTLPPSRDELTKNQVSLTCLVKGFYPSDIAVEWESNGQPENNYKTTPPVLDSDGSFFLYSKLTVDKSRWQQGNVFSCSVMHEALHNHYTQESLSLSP
light: B1 light
notes: also called Ho Ab L328_02A
B8: GpH7-A5/GpH7-B3 variant A330_12R/GpL16-k0 (antibody, human IgG1, kappa)
heavy 1: not shown
heavy 2: not shown
light: B1 light
notes: also called He Ab A330_12R
B9: GpH7-B3 variant L235_15Y/GpL16-k0 (antibody, human IgG1, kappa)
heavy: not shown
light: B1 light
notes: also called Ho Ab L235_15Y
B10: GpH7-A5/GpH7-B3 variant E333_04F/GpL16-k0 (antibody, human IgG1, kappa)
heavy 1: not shown
heavy 2: not shown
light: B1 light
notes: also called He Ab E333_04F
B11: GpH7-A5/GpH7-B3 variant E333_05P/GpL16-k0 (antibody, human IgG1, kappa)
heavy 1: not shown
heavy 2: not shown
light: B1 light
notes: also called He Ab E333_05P
B12: GpH7-B3 variant L328_13S/GpL16-k0 (antibody, human IgG1, kappa)
heavy: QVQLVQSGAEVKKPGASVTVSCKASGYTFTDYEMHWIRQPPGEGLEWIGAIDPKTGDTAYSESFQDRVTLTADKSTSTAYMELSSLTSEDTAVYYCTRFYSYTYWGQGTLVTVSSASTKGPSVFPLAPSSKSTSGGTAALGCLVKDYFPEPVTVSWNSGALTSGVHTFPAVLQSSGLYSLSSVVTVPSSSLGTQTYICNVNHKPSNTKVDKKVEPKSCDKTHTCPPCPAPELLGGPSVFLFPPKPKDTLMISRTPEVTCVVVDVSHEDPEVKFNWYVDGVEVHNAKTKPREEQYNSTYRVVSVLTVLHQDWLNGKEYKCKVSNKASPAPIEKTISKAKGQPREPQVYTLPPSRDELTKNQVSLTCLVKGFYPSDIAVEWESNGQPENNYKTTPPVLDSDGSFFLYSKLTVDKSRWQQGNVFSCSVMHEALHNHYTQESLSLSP
light: B1 light
notes: also called Ho Ab L328_13S
B13: GpH7-B3 variant K334_13S/GpL16-k0 (antibody, human IgG1, kappa)
heavy: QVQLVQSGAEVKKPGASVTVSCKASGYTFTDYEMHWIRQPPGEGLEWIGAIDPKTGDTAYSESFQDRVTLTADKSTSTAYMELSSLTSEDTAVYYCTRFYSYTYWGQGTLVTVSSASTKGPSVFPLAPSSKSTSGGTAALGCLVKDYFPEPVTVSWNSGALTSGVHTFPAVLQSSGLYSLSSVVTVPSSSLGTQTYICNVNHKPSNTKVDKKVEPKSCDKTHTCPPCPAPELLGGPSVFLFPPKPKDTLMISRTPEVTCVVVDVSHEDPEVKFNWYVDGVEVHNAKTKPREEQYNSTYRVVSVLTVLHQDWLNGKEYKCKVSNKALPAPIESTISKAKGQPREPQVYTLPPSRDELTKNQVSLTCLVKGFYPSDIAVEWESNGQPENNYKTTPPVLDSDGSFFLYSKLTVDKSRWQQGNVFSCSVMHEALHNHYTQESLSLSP
light: B1 light
notes: also called Ho Ab K334_13S
B14: GpH7-A5/GpH7-B3 variant A327_09D/GpL16-k0 (antibody, human IgG1, kappa)
heavy 1: not shown
heavy 2: not shown
light: B1 light
notes: also called He Ab A327_09D
B15: GpH7-B3 variant P271_09D/GpL16-k0 (antibody, human IgG1, kappa)
heavy: not shown
light: B1 light
notes: also called Ho Ab P271_09D
B16: GpH7-B3 variant K334_20W/GpL16-k0 (antibody, human IgG1, kappa)
heavy: not shown
light: B1 light
notes: also called Ho Ab K334_20W
B17: GpH7-B3 variant L234_04F/GpL16-k0 (antibody, human IgG1, kappa)
heavy: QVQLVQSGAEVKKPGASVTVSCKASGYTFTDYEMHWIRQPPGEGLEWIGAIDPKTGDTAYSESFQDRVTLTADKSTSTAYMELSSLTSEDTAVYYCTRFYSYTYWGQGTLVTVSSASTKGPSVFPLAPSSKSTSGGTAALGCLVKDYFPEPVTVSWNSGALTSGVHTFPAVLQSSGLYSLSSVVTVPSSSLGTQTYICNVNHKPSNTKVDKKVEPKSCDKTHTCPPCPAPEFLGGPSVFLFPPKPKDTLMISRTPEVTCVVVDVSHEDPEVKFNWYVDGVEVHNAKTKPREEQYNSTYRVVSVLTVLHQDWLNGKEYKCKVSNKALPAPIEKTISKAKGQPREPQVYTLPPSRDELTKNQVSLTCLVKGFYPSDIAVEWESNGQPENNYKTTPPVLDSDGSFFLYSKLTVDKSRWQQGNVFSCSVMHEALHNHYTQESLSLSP
light: B1 light
notes: also called Ho Ab L234_04F
B18: GpH7-B3 variant N325_10E/GpL16-k0 (antibody, human IgG1, kappa)
heavy: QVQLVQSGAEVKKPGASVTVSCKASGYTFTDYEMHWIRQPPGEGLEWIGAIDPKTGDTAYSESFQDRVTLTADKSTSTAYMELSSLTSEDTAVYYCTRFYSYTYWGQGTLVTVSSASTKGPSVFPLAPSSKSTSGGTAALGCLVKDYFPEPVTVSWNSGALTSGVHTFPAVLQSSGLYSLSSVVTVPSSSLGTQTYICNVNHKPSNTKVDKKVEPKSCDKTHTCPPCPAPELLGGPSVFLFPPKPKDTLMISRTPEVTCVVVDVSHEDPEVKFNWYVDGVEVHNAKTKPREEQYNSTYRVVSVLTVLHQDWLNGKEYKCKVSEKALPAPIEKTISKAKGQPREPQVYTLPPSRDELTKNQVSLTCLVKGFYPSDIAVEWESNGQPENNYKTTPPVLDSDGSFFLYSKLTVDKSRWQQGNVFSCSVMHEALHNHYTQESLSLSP
light: B1 light
notes: also called Ho Ab N325_10E
B19: GpH7-B3 variant N325_07I/GpL16-k0 (antibody, human IgG1, kappa)
heavy: not shown
light: B1 light
notes: also called Ho Ab N325_07I
B20: GpH7-B3 variant N325_09D/GpL16-k0 (antibody, human IgG1, kappa)
heavy: not shown
light: B1 light
notes: also called Ho Ab N325_09D
B21: GpH7-B3 variant P238_03V/GpL16-k0 (antibody, human IgG1, kappa)
heavy: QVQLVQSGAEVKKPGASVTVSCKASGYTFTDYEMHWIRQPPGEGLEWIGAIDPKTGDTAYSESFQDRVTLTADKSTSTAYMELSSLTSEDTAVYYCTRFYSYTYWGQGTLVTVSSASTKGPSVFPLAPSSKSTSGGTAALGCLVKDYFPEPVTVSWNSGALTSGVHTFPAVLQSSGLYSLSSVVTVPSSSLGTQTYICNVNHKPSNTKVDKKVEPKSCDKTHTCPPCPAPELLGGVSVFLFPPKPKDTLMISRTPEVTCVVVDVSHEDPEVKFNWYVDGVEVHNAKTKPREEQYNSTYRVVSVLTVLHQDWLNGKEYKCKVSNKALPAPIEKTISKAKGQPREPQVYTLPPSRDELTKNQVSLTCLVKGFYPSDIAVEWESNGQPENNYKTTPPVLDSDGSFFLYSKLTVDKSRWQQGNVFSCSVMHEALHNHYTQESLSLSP
light: B1 light
notes: also called Ho Ab P238_03V
B22: GpH7-B3 variant P271_08L/GpL16-k0 (antibody, human IgG1, kappa)
heavy: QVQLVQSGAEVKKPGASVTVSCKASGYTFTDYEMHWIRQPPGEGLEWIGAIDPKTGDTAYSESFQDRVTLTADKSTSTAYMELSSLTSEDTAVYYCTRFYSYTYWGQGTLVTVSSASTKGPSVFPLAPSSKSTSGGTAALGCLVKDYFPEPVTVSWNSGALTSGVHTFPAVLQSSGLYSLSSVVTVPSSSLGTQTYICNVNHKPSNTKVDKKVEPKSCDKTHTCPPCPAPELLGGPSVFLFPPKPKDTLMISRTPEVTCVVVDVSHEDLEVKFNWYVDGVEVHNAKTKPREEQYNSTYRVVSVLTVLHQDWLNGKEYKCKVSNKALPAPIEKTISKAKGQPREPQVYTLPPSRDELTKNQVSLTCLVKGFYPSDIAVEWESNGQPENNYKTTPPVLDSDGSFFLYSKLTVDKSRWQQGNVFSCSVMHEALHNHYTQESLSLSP
light: B1 light
notes: also called Ho Ab P271_08L
B23: GpH7-B3 variant L234_20W/GpL16-k0 (antibody, human IgG1, kappa)
heavy: not shown
light: B1 light
notes: also called Ho Ab L234_20W
B24: GpH7-A5/GpH7-B3 variant E269_09D/GpL16-k0 (antibody, human IgG1, kappa)
heavy 1: not shown
heavy 2: not shown
light: B1 light
notes: also called He Ab E269_09D
B25: GpH7-B3 variant L235_20W/GpL16-k0 (antibody, human IgG1, kappa)
heavy: not shown
light: B1 light
notes: also called Ho Ab L235_20W
B26: GpH7-A5/GpH7-B3 variant A330_19Q/GpL16-k0 (antibody, human IgG1, kappa)
heavy 1: not shown
heavy 2: not shown
light: B1 light
notes: also called He Ab A330_19Q
B27: GpH7-A5/GpH7-B3 variant A330_01G/GpL16-k0 (antibody, human IgG1, kappa)
heavy 1: not shown
heavy 2: not shown
light: B1 light
notes: also called He Ab A330_01G
B28: GpH7-B3 variant P238_19Q/GpL16-k0 (antibody, human IgG1, kappa)
heavy: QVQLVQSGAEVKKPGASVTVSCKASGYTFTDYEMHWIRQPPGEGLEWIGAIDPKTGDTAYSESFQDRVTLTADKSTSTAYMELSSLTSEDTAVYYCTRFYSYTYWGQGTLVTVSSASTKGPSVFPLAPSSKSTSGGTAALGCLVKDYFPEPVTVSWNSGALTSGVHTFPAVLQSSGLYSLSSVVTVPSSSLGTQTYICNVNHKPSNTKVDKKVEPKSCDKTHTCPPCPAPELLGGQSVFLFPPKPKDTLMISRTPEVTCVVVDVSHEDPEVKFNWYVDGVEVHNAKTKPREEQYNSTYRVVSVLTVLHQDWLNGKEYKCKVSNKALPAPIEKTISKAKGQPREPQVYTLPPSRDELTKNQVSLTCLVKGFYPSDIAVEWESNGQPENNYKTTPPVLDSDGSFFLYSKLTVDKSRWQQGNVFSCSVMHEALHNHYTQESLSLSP
light: B1 light
notes: also called Ho Ab P238_19Q

The experiment deals with T1, FcγRIIa R. In words: SPR (Biacore), captured antibody, FcγR as analyte; relative binding activity. Background: SPR reads the build-up and loss of mass on a sensor chip optically.
In the case of B1, the Ho/Con_2aR was 56 % (GpH7-B3/GpL16-k0 = 100).

For the molecule B2, the Ho/Con_2aR was 126 % (GpH7-B3/GpL16-k0 = 100).

For B3, the Ho/Con_2aR was 146 % (GpH7-B3/GpL16-k0 = 100).

Consider B4, for which the Ho/Con_2aR was 89.1 % (GpH7-B3/GpL16-k0 = 100).

B5: the Ho/Con_2aR was 88.9 % (GpH7-B3/GpL16-k0 = 100).

As to B6, the He/Con_2aR was 110 % (GpH7-A5/GpH7-B3/GpL16-k0 = 100).

Consider B7, for which the Ho/Con_2aR was 97 % (GpH7-B3/GpL16-k0 = 100).

On to B8, for which the He/Con_2aR was 104 % (GpH7-A5/GpH7-B3/GpL16-k0 = 100).

Turning to B9, the Ho/Con_2aR was 111 % (GpH7-B3/GpL16-k0 = 100).

For the molecule B10, the He/Con_2aR is 102 % (GpH7-A5/GpH7-B3/GpL16-k0 = 100).

Take B11: the He/Con_2aR was 105 % (GpH7-A5/GpH7-B3/GpL16-k0 = 100).

As for B12, the Ho/Con_2aR is 108 % (GpH7-B3/GpL16-k0 = 100).

Turning to B13, the Ho/Con_2aR is 106 % (GpH7-B3/GpL16-k0 = 100).

For B14, the He/Con_2aR is 124 % (GpH7-A5/GpH7-B3/GpL16-k0 = 100).

On to B15, for which the Ho/Con_2aR was 92.4 % (GpH7-B3/GpL16-k0 = 100).

For the molecule B16, the Ho/Con_2aR is 96.4 % (GpH7-B3/GpL16-k0 = 100).

Consider B17, for which the Ho/Con_2aR was 43.3 % (GpH7-B3/GpL16-k0 = 100).

Consider B18, for which the Ho/Con_2aR was 49.9 % (GpH7-B3/GpL16-k0 = 100).

Regarding B19, the Ho/Con_2aR is 77 % (GpH7-B3/GpL16-k0 = 100).

With B20, the Ho/Con_2aR is 74.8 % (GpH7-B3/GpL16-k0 = 100).

Take B21: the Ho/Con_2aR was 116 % (GpH7-B3/GpL16-k0 = 100).

Regarding B22, the Ho/Con_2aR is 102 % (GpH7-B3/GpL16-k0 = 100).

For B23, the Ho/Con_2aR is 53.8 % (GpH7-B3/GpL16-k0 = 100).

As to B24, the He/Con_2aR was 105 % (GpH7-A5/GpH7-B3/GpL16-k0 = 100).

For the molecule B25, the Ho/Con_2aR is 114 % (GpH7-B3/GpL16-k0 = 100).

Consider B26, for which the He/Con_2aR was 104 % (GpH7-A5/GpH7-B3/GpL16-k0 = 100).

For the molecule B27, the He/Con_2aR is 109 % (GpH7-A5/GpH7-B3/GpL16-k0 = 100).

For the molecule B28, the Ho/Con_2aR is 19.4 % (GpH7-B3/GpL16-k0 = 100).
